In paper PMC5904407:

Legend:
[1] = biological target: Full-length NttD (FL-NttD; residues 1 to 373), minus N-terminal signal sequence (Legionella pneumophila strain 130b); assay: SEC
[2] = biological target: Full-length LapA (FL-LapA; residues 1 to 378), minus N-terminal signal sequence (Legionella pneumophila strain 130b); assay: crystal structure

Substance	stoichiometry N [1]	stoichiometry N [2]
Full-length NttD (FL-NttD; residues 1 to 373), minus N-terminal signal sequence (natural protein)	2	–
Full-length LapA (FL-LapA; residues 1 to 378), minus N-terminal signal sequence (enzyme)	–	2
